Earlier results on 1 substance are cited in article PMC2723763.

The Kd is the equilibrium constant for the complex coming apart.

This data set deals with ZPI (Homo sapiens) (UniProt Q9UK55).
Sequence of UniProt Q9UK55 (Q9UK55 22-444): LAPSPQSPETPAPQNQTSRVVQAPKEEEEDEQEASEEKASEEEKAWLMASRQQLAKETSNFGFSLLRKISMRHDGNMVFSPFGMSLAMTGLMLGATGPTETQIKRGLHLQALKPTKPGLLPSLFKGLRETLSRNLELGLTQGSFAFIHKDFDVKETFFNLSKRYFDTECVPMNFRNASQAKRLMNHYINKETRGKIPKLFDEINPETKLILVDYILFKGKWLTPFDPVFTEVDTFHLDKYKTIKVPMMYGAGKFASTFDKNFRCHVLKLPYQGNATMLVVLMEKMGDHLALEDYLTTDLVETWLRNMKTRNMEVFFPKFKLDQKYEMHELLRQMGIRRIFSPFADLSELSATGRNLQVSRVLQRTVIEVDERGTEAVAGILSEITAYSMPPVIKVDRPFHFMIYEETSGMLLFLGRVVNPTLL

In the case of protein Z (from UniProt P22891), the equilibrium dissociation constant (Kd) is 7 nM.
